The record followed here is the supplement of paper PMC7877785.

± gives the uncertainty stated by the source.

This data set is described as follows: self-splicing fitness, log relative to wild type (ln ratio); higher = more splicing; Tetrahymena group I intron in knt gene, E. coli kanamycin selection, DiMSum; sequences stand for … in CUCUCU…GGAGGGAAAAGUUAUCAGGCAUGCACCUGGUAGCUAGUCUUUAAACCAAUAGAUUGCAUCGGUUUAAAAGGCAAGACCGUCAAAUUGCGGGAAAGGGGUCAACAGCCGUUCAGUACCAAGUCUCAGGGGAAACUUUGAGAUGGCCUUGCAAAGGGUAUGGUAAUAAGCUGACGGACAUGGUCCUAACCACGCAGCCAAGUCCUAAGUCAACAGAUCUUCUGUUGAUAUGGAUGCAGUUCACAGACUAAAUGUCGGUCGGGGAAGAUGUAUUCUUCUCAUAAGAUAUAGUCGGACCUCUCCUUAAUGGGAGCUAGCGGAUGAAGUGAUGCAACACUGGAGCCGCUGGGAACUAAUUUGUAUGCGAAAGUAUAUUGAUUAGUUUUGGAGUACUCGUGGUCG
In short, it runs like this: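 Library with all eight P1ex-region intron nucleotides randomised, intron inside the knt kanamycin-resistance gene on pET-22b(+), in E. coli BL21(DE3). Cells grew overnight at 37°C or 30°C on LB agar with or without 25 μg/mL kanamycin (plus 100 μg/mL carbenicillin, 50 μM IPTG, 0.2% rhamnose), in six replicate transformations. Pooled colonies were amplicon-sequenced on Illumina HiSeq 2500. DiMSum fitness is the error-weighted combination of wild-type-normalised replicate fold changes, kanamycin versus none.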

Take CAACAGCAAUAUUACGUUAU: the “self-splicing fitness (ln)” value runs as follows: (30 °C) -3.16 ± 0.13; (37 °C) -1.94 ± 0.13.
Regarding CUAGAGCAAUAUUACGGCAG, the “self-splicing fitness (ln)” value runs as follows: (30 °C) 0.0667 ± 0.08; (37 °C) 0.49 ± 0.11.
The matching figures for AUUGAGCAAUAUUACGGCCU: -3.53 ± 0.21 and -0.674 ± 0.11.
On the same counts, the results for UUAAAGCAAUAUUACGGUUC are -3.46 ± 0.19 and -1.81 ± 0.18.
The matching figures for GAUGAGCAAUAUUACGGCUU: -2.34 ± 0.14 and -1.12 ± 0.14.
For AACGAGCAAUAUUACGCGCG, the “self-splicing fitness (ln)” value (30 °C) is -1.81 ± 0.28 and the “self-splicing fitness (ln)” value (37 °C) was -1.75 ± 0.28.
Regarding CGGCAGCAAUAUUACGAUAA, the “self-splicing fitness (ln)” value is -2.07 ± 0.21 (30 °C) and -1.96 ± 0.34 (37 °C).
Regarding CUCGAGCAAUAUUACGGCUU, for the setting “30 °C”, the “self-splicing fitness (ln)” value is -2.57 ± 0.47.
AAAUAGCAAUAUUACGGUAC: the “self-splicing fitness (ln)” value was -3.61 ± 0.25 (30 °C) and -2.6 ± 0.3 (37 °C).
The matching figures for CUUUAGCAAUAUUACGUGUC: -2.98 ± 0.21 and -1.55 ± 0.17.
On the same counts, the results for UCACAGCAAUAUUACGUGAG are -0.886 ± 0.03 and -0.396 ± 0.052.
The matching figures for UCGCAGCAAUAUUACGCACG: -2.26 ± 0.16 and -0.255 ± 0.15.
CACGAGCAAUAUUACGGUUG: the “self-splicing fitness (ln)” value is, setting by setting: (30 °C) -3.57 ± 0.15; (37 °C) -1.6 ± 0.12.
On the same counts, the results for GAGCAGCAAUAUUACGGAAU are -3.37 ± 0.22 and -2.08 ± 0.2.
The matching figures for CCGGAGCAAUAUUACGGUAC: -2.73 ± 0.22 and -2.25 ± 0.4.
As to UGAUAGCAAUAUUACGGUAA, the “self-splicing fitness (ln)” value (37 °C) is -1.62 ± 0.35.
For the sequence AUUGAGCAAUAUUACGAGCU, the “self-splicing fitness (ln)” value was -3.6 ± 0.37 (30 °C) and -1.63 ± 0.37 (37 °C).
On the same counts, the results for GGGCAGCAAUAUUACGACCG are -0.512 ± 0.14 and 0.369 ± 0.17.
On the same counts, the results for GGAAAGCAAUAUUACGCGUU are -3.16 ± 0.16 and -2.49 ± 0.19.
The matching figures for AUAGAGCAAUAUUACGCAUA: -0.926 ± 0.16 and -0.513 ± 0.26.
Consider CGUCAGCAAUAUUACGGCAC, for which the “self-splicing fitness (ln)” value (30 °C) is -1.8 ± 0.12 and the “self-splicing fitness (ln)” value (37 °C) was -0.799 ± 0.14.
Consider UCGGAGCAAUAUUACGUGUC, for which the “self-splicing fitness (ln)” value (37 °C) is -2.26 ± 0.29.
As for GCCAAGCAAUAUUACGACUG, the “self-splicing fitness (ln)” value (30 °C) was -4.32 ± 0.23 and the “self-splicing fitness (ln)” value (37 °C) was -1.94 ± 0.15.
On the same counts, the results for GCCCAGCAAUAUUACGUCUG are -3.86 ± 0.14 and -2.73 ± 0.17.
Take UAGGAGCAAUAUUACGAGAG: the “self-splicing fitness (ln)” value (30 °C) was -3.02 ± 0.21.
Regarding UAGAAGCAAUAUUACGCACG, the “self-splicing fitness (ln)” value reads like this: (30 °C) -0.11 ± 0.23; (37 °C) -0.0394 ± 0.23.
On to ACCAAGCAAUAUUACGGAGC, for which the “self-splicing fitness (ln)” value is -3.33 ± 0.23 (30 °C) and -3.2 ± 0.33 (37 °C).
The matching figures for CAGAAGCAAUAUUACGUGGA: -2.71 ± 0.18 and -3.1 ± 0.2.
In the case of GGGAAGCAAUAUUACGAGUC, the “self-splicing fitness (ln)” value runs as follows: (30 °C) -2.56 ± 0.17; (37 °C) -1.36 ± 0.16.
On the same counts, the results for GGCCAGCAAUAUUACGAGCC are -2.63 ± 0.26 and -2.72 ± 0.29.
Regarding CAUCAGCAAUAUUACGUCCC, the “self-splicing fitness (ln)” value was -2.53 ± 0.31 (30 °C) and -1.39 ± 0.27 (37 °C).
The matching figures for CCAUAGCAAUAUUACGCUCU: -4.23 ± 0.3 and -2.85 ± 0.24.
As to UCCCAGCAAUAUUACGAUUU, the “self-splicing fitness (ln)” value was -3.49 ± 0.11 (30 °C) and -1.52 ± 0.097 (37 °C).
GCGCAGCAAUAUUACGCUGC: the “self-splicing fitness (ln)” value (37 °C) was -3.59 ± 0.43.
As to ACAAAGCAAUAUUACGUAGC, the “self-splicing fitness (ln)” value is -2.35 ± 0.086 (30 °C) and -2.01 ± 0.12 (37 °C).
Turning to CCGUAGCAAUAUUACGAUGG, the “self-splicing fitness (ln)” value is, setting by setting: (30 °C) -3.58 ± 0.2; (37 °C) -3.38 ± 0.26.
Take UGAAAGCAAUAUUACGACGG: the “self-splicing fitness (ln)” value (30 °C) was -0.788 ± 0.1 and the “self-splicing fitness (ln)” value (37 °C) was -0.64 ± 0.1.
The matching figures for GGAGAGCAAUAUUACGCGCA: -1.36 ± 0.19 and -0.414 ± 0.21.
On the same counts, the results for GAGCAGCAAUAUUACGAACG are -2.53 ± 0.18 and -0.673 ± 0.16.
